Test results from US20220281965A1 (AstraZeneca / MedImmune, published 2022).
Substitutions are numbered along the chain they refer to.

Columns and labels:
[1] = target: T1, mature recombinant human GDF-15 with an N-terminal Flag and His tag, biotinylated (human, UniProt Q99988 197-308, chemically biotinylated with EZ link Sulfo-NHS-LC-Biotin, sites not stated); experiment: SPR Biacore 8K, 25 C, biotinylated GDF-15 on streptavidin C1 chip, Fab as analyte
T1 construct: not shown: N-terminal Flag and His tags
T1 sequence: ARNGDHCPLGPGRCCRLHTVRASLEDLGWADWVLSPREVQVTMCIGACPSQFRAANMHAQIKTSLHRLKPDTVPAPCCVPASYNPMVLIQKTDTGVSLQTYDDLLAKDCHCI
Experimental: (§1) The experiments were carried out using mature recombinant human GDF-15, human GDF-15 H202D variant, mouse GDF-15, and cynomolgus GDF-15 with an N-terminal Flag and His tag. All species were chemically biotinylated using EZ link Sulfo-NHS-LC-Biotin (Thermo).
(§2) Streptavidin was covalently immobilized to a C1 chip surface using standard amine coupling techniques at a concentration of 4 μg/ml in 10 mM Sodium acetate pH 4.5. Recombinant biotinylated GDF-15 species were titrated onto the streptavidin chip surface in HBS-EP+ buffer to enable Fab binding.
(§3) Multiple buffer-only injections were made under the same conditions to allow for double reference subtraction of the final sensorgram sets, which were analyzed using Biacore 8K Evaluation Software. The chip surface was fully regenerated with pulses of 50 mM NaOH.

[2] = target: T2, mature recombinant human GDF-15 H202D variant with an N-terminal Flag and His tag, biotinylated (human, UniProt Q99988 197-308, chemically biotinylated with EZ link Sulfo-NHS-LC-Biotin, sites not stated); experiment: as above
T2 construct: also called Human H202D; not shown: N-terminal Flag and His tags
T2 chain: T1 sequence with H6D
Experimental: as §1, §2, §3

[3] = target: T3, mature recombinant cynomolgus GDF-15 with an N-terminal Flag and His tag, biotinylated (cynomolgus, UniProt G7PWZ3 197-308, chemically biotinylated with EZ link Sulfo-NHS-LC-Biotin, sites not stated); experiment: as above
T3 construct: not shown: N-terminal Flag and His tags
T3 sequence: T1 sequence with H6R, R21H, A54E, T63M, S64N, I112V
Experimental: as §1, §2, §3

[4] = target: T4, mature recombinant mouse GDF-15 with Flag and His tags (mouse, UniProt Q9Z0J7 189-303); experiment: SPR Biacore 8K, biotinylated mouse GDF-15 on streptavidin C1 chip, Fab as analyte
T4 construct: also called Flag tagged mouse GDF-15; not shown: FLAG and poly-His tags immediately C-terminal to the furin cleavage site (N-terminal on the mature protein)
T4 sequence: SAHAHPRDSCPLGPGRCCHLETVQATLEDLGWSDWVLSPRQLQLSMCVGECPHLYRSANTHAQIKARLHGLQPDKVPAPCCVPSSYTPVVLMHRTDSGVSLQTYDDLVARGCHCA
Experimental: as §1, §2, §3

B1: AB1170247 Fab (Fab, V domains shown)
VH: QVQLVQSGSELKKPGASVKVSCKASGYTFTSYDINWVRQAPGQGLEWIGWIYPRDGISKYNEKFKGRATLTVDTSASTAYMELSSLRSEDTAVYYCAGTYDPAYFDYWGQGTTVTVSS
VL: EIVLTQSPATLSVSPGERATLSCRASQSISYYLHWYQQKPGQAPRLLIKYASQSISGVPDRFSGSGSGTDFTLKISRVEAEDFGVYYCQQSNSWPYTFGGGTKVEIK
notes: Fab of the humanized antibody, expressed as in Spooner et al. 2015
[1]
  Kd: 9.24 nM
  koff: 0.0386 s⁻¹
  kon: 4.18e+06 M⁻¹ s⁻¹
[2]
  Kd: 9.5 nM
  koff: 0.0385 s⁻¹
  kon: 4.06e+06 M⁻¹ s⁻¹
[3]
  Kd: 15 nM
  koff: 0.0686 s⁻¹
  kon: 4.58e+06 M⁻¹ s⁻¹
[4]
  binding result: no binding
